Source: a protein production outcome set (Wang et al. 2014)

Assay: label from the status in PepcDB records

In the case of “MNEADYLRLLTRQAEQANDFLSNARKWDRERWVCQRFLEALNVPYRQEDFAAPGEQPPDVLFKGAGFEVFFVLDEGRRLNEEWREELTRRRQAVSLRQLIRREERPQRIAAAELQARLAPTLRKKAHNYSERGIDHGELDLLAFVNLKRAVPDFNTPFPPPTEYLRQGWRSLSMVGPTFARVLFAHSGAPEFLRANLGRSILFDAGVGL”, the protein production is reported as “not failed”.
For “YQAIYRRATTYLAMGRGKAAIVDLERVLELKPDFYGARIQRGNILLKQGELEAAEADFNIVLNHDSSN”, the protein production was “failed”.
With “MESSPSGSEPPQKVVSKLQKVGWRATMIFNLGFAAYIFAIKREKDIDADEKKKVKKGSEARHKGVKKGAVNTEIEKKGAEETDKAKEAETAIPEKEETKLIPELDPLFEFTDATDQSMFQTVATEHVKVARKPIPEDEQKELFKWILEEKRKIEPKDRKEKKQIDEEKAILKQFIRAERIPKLLPDDSVDSSLRDWDKFFSK” the protein production was “failed”.
With “MKRSTEFLKSLDVKLILILLALCVTSIAAIYSSQQTGQYGESNFAMKQGLNYIIGVVLLLLVASIDLDQLQKLSWPLYIVGFASLILLKILPVSTFTPEKLGAKRWFVFPLVGQIQPSEFFKISLLLVVASIAVKHNAQYMARTFQTDLKLVGKIVLVSLPPIAVVYSQPDTGMVFLYAAAIACILFMSGIQKKLIALCTVIPVTILSTLIFIYVRYEDFFFNKLVTLLKPHQQSRILGWLDPFEHTDQGYQTQQSILAVGSGGMEGKGFGEGNVYIPEKHTDFIFATIAEEGGFIVAALVVFLFLLLLYRTIIIGYSADNLFGTLLCAGSIGILTVQIFQNIGMIVGLMPVKGIALPFLSYGGSSLFSNMIMMGLILSVRKTYKKYMFSVK” the protein production was “failed”.
In the case of “MRYGFMKVAAAVPFVKVADCEYNIERIDRMVHEADAKGVEIMTFPELSITGYSCGDLFFQPFLQERANEALCRLVEQTANTTVMVIVGMPLRVEEKLFNSAVVFQQGKILGAIPKTYLPNYREFQEARWFSPAHTLQYSTISIGQHSVPIGRNLIFKCGTVGVGIEICEDMWTPFTPGTRLCLYGAEVIFNLSSSNENAGKHSYLRSLISGLSSQGICAYVYASSGYGESSTDIVFTGKAFIAEAGEIVEEMERFRYEERMIISDIDVSRIQTERLINSSFKAAVTFHTHDEKFNQLPFKLRSRQESLPMTRRVDRNPFMPEDKDRKERSREMINIQVCGLMQRLLHMGAEHAVIGISGGLDSALALIVCAQAFDRLDLPRKNIIAVTMPGFGTSDRTYRNAFALMEAIGVTIKEIDIKEACLRHFEAIGHNPEVQDTTFENTQARERTQILMNLANIYNAPVIGTGDLSELALGWVTYNGDHMSMYAVNAGIAKTTVQILVDHIAHSGWLDEAASAVLLDIVRTPISPELKPVGQDGNISQKTEDLVGPYELHDFFIYHFLHNEYKPSKIYYLAGVAFKGIYTKAEIKKWMMVFFRRFFAQQYKRNCMPDGPKVSCISLSPRGAWRMASDASSALWLDEIAKFETDLEHHHHHH”, the protein production is reported as “failed”.
In the case of “MSEAKWLSLLGLAARARQLLTGEEQVVKAVQNGQVTLVILSSDAGIHTKKKLLDKCGSYQIPVKVVGNRQMLGRAIGKHERVVIGVKDAGFSRKLAALIDE”, the protein production is reported as “not failed”.
With “MAGSVACRLRPGMAAGGTGMKRYVIFAAIGPLIGGLLLLFATTYQSGYWAHTNLTEVQKFFVVLFKSLQYSYLFGLLPALMMAAIDEIICHIRRVGPGGRVVIVGVIGFLATAFMYGNRGADAGVLQFVLYGLVGLVPATLSSWLANKFCAPVTAETKPASA” the protein production was “failed”.
In the case of “SLPHCETLLLEPIEGVLRITLNRPQSRNAMSLAMVGELRAVLAAVRDDRSVRALVLRGADGHFCAGGDIKDMAGARAAGAEAYRTLNRAFGSLLEEAQAAPQLLVALVEGAVLGGGFGLACVSDVAIAAADAQFGLPETSLGILPAQIAPFVVRRIGLTQARRLALTAARFDGREALRLGLVHFCEADADALEQRLEETLEQLRRCAPNANAATKALLLASESGELGALLDDAARQFAEAVGGAEGS”, the protein production is reported as “failed”.
With “MSSLTIILIAAISAVLAFLIIFLLKSILFPKKRARIEKNLKSGKYGAAIKDAKSILSKNPRDSEARYLLGKAYLADKKVDLAFIEFKTLNKTAVFNNPATEIEFRTIIADLYLKFQQPDEALKEFMLLNKRDPKNPKPYFQAGQIYESKNMSDQAIAYFQKAIEVDSRFAEAYASLGLLLFKANQIPEAEKAIATALKLAPDNSETLYYHGKILKSKKNYAQALSALEKAARKQEIRSKCFFERGCCYLETNSLEKAEFEFTRAIKSSKQLSAPEVLYSRYLLADCYERQRNIDQAIEQWEAISAVNPKFRNTAQKLAEYSDLRTNDHMKEYLTLIKEEFFKMCRDITEQYFDYPVQALKETKMGCTILAVEKGSEQWLNTRKKPQLLIFSRDGHTITESFLRSVHEEMKKQAVVTSHIITSGAFSPDAIKFAENRPFNLIDRQKLERIVEKVKFTF” the protein production was “failed”.
With “MSRRDQLFSAMTASYVIAVTLAIVIAAIFAPVIWNGVPSGGDDDPSVAVITLRGGTTDANVNAVKQDLREARTNESIEAVVLRVDSPGGPVDSSEEFYLAVNRTASEMPVVAYVEGTAASGGYYGITPADEIVVKPSSNVGSIGVIVQAPLSLIEQVEQQGETFVRSGPDKAQISKDSLREDIEVLQRSFVGTVMRHRGEQLTVSREEVANGGTYLGAQATENGFADRIGDTGLAIERAAALSDDIEGDQYDVVYQGSGGAEFNVIIVPAGAETVQGANNVTYLVHPDNSETTFREPVKYYAVWGIPAEDNNATVIRND” the protein production was “failed”.
With “MQMIKPPVQRHSHRRHRLLRSLGHQFSFGFFALCEKQRECKCDMATVMTTNLYNVARHSPHPIIFVCGSWSSLIESLIESAKEEEESMRRRS” the protein production was “failed”.
In the case of “MKAALWMAGWLALMVIVAVAGRETLRELSVFQVMELRSVIGFAMLYPLIHKFGGLTAMATARPLAHLSRNLVHYAAQLGWFYALTLISIGQVVSIEFTMPIWIAILAATFLGEHMNVWKITAVVLGLIGVVVIVRPATSSIEPGQLIALGAAVGFGISVTLMKSLTRTESTLAIIFWMLLIQSAAGLVPALWLWQWPSAYVWVWIVIIAFCGTFSHYCMARALTYADATIVVPMDFLRVPLSATAGWLIYGERLDAYTVIGAALILIGNLLNLRGAPRPPAAASIRNSP”, the protein production is reported as “failed”.
For “MIVSVVIPVAKEGNTLYERIHLINKHFNSLSSSHKFSYEIILVSDIFHKPTLKAMIRLAKENVAKCLLLTQRIGKGGSIKNAIPFSRGDYIVILDADIPVRPIFINQAVVLAMNLGIDLIIANRVYRTHSLLRRVLSVAYNSLVNLLFKTGLRDHQAGLKILSRRAAKIILMKRTRTDGLAYDTEIVVWAKRHGLRYRAVNVVWREQREGSTIPPMRALLTMLADLIMLRLLTLAGKYVALQKLVIGRVIDLGNIHTVGQEFMTVIRASRPKNHLLNVLRKLYIAVALRR”, the protein production was “failed”.
For “MCPEFQRKAAGAPRMGAMLARCVLTAALALQAAAAARAVEIEIGVASRGVVDGLEFVQFSADERTMATTHWGNVVHLWDLKTLRVRSSVSVANRDFDFDLSPDGRALAVWNEEGKGEIELYDTDNGQPARALPAPRLPQGESRRGRSLVYRDDGTLEFVSHGWIGGHARKAYLLAVPAGQPRAAETPLPALVNSVAFRKSAVMDQGRLLLAGVDGADDELAIMDIASGRMLAREPGFRIASYAADARRAVFVEADGKQRILAFDFSSRSLSTLPRWTGSGKFQPYRFVAGTRFLVLAPDEPDASTRRAAPGIYDLQTRRLHRLPPDADPGSIDVWGATASYVLCNPDHTACQAEVADLAISRKLGTFAVQPSADFRTWISPSGSMVVVGGADDGTMMVWSVKEQRVIGPNLEHHHHHH”, the protein production was “failed”.
In the case of “MSEGFSSSSIQELYQSLKEITNNADVELFEDRITKLDFESTDEPKHANDIIKDRFLRPSNALPWSLLDMVQDVPHTSSPEDCSGKLDYKELLKVPDPINRTSYQFKRTGLEGKISGYKEEVDLKEVANANASNSLSITRSINHNQNSVRGSTAQLPFTPGGIPMKSVKTDSEQNGSSTMANATKLLHKDGQGLFDIPEGMNRGIKPMDSPAENEDQNGQFKELKQLNEIDNELDIRIEANEAKLKEEEKSAKSISEEIMEEATEETTADNADDAEIDELLPIGIDFGRTKPVSKSVPVKKEWAHVVDLNHKIENFDELIPNPARSWPFELDTFQKEAVYHLEQGDSVFVAAHTSAGKTVVAEYAIAMAHRNMTKTIYTSPIKALSNQKFRDFKETFDDVNIGLITGDVQINPDANCLIMTTEILRSMLYRGADLIRDVEFVIFDEVHYVNDQDRGVVWEEVIIMLPQHVKFILLSATVPNTYEFANWIGRTKQKNIYVISTPKRPVPLEINIWAKKELIPVINQNSEFLEANFRKHKEILNGESAKGAPSKTDNGRGGSTARGGRGGSNTRDGRGGRGNSTRGGANRGGSRGAGAIGSNKRKFFTQDGPSKKTWPEIVNYLRKRELLPMVVFVFSKKRCEEYADWLEGINFCNNKEKSQIHMFIEKSITRLKKEDRDLPQILKTRSLLERGIAVHHGGLLPIVKELIEILFSKGFIKVLFATETFAMGLNLPTRTVIFSSIRKHDGNGLRELTPGEFTQMAGRAGRRGLDSTGTVIVMAYNSPLSIATFKEVTMGVPTRLQSQFRLTYNMILNLLRIEALRVEEMIKYSFSENAKETLQPEHEKQIKVLQEELQTIEYKSCEICDNDIEKFLELMLAYKEATVNLMQEMVKSPSILHILKEGRLVAFRDPNDCLKLGFVFKVSLKDAVCVIMTFTKPYKLPNGEPNHLIYFPKADGYRRRNFPKFQKTDFYMEEVPVTAIEVITKRKFAAPLGKVIKKDVAALNEFNAETNNILDGKTLKEAINIEKQGLKIHQILLDRTNIRDEIFKLKSIKCPNLSQHIVPKFKAHVIKKKIEELYHLMSDQNLSLLPDYEKRLAVLKDTEFIDQNHNVLLKGRVACEINSGYELVLTELILDNFLGSFEPEEIVALLSVFVYEGKTREEEPPIVTPRLAKGKQRIEEIYKKMLCVFNTHQIPLTQDEAEFLDRKRFAMMNVVYEWARGLSFKEIMEMSPEAEGTVVRVITWLDEICREVKTASIIIGNSTLHMKMSRAQELIKRDIVFAASLYL”, the protein production is reported as “failed”.
In the case of “MRGSVPSVREIETLLSQLPWRQFQSPRVHLEQYTTPVHLAARIAHHVALCIDEDERRSVQAVDLGTGTGILALALCLAGLNHVLGVDVDSEALELARANAAALWELCPQSVGAVLEFAAVDVQPNSLALAPKSFDVAVLNPPFGTRQRSADIAFLDVACHLSRRFVYSLHKSSTRSYLSRRLERFGCTAQVYARLRFDLPATYVFHRERAVDIDVDLWQIEVKR”, the protein production is reported as “not failed”.
For “MNSYDFITALVPIILIIIGLGIIKKPAYYVIPISLIATVAIVIFYKNLGIVNTSLAMLEGALMGIWPIATVIIAAIFTYKMSEDQKDIETIKNILSNVSSDRRIIVLLVAWGFGNFLEGVAGYGTAVAIPVSILIAMGFEPFFACLICLIMNTSSTAYGSVGIPITSLAQATNLDVNIVSSEIAFQLILPTLTIPFVLVILTGGGIKGLKGVFLLTLLSGMSMAISQVFISKTLGPELPAILGSILSMTITIVYARFFGNKETTERQSKNTISLSKGIIACSPYILIVTFIVLVSPLFNKIHEYLKTFQSTISIYPEANPLHFKWIISPGFLIILATTISYSIRGVPMLKQLKIFTLTLKKMALSSFIIICIVAISRLMTHSGMIRDLANGISIITGKFGPLFSPLIGAIGTFLTGSDTVSNVLFGPLQTQMAENIGANPYWLAAANTTGATGGKMISPQNITIATTTAGLIGQEGKLLSKTIIYALYYILATGLLVYLV”, the protein production was “failed”.
